From publication doi:10.1101/671792

Biological target: polymerization-deficient p62 PB1 domain D69A/D73A (human) (UniProt Q13501)
Test: ITC

**Q.** For “human NBR1 PB1 domain, residues 1-85 (ITC) (from UniProt Q14596 1-85) (domain or fragment)”, which Kd is on record?
**A.** The Kd was 12.6 nM.
